According to article PMC8336959 (Science Advances, 2021):
Square brackets hold non-standard residues; d marks the D form. Ends that are not written are not given here. pY = N[C@@H](Cc1ccc(OP(=O)(O)O)cc1)C(=O)O; pS = N[C@@H](COP(=O)(O)O)C(=O)O

B1: RPA70 N-terminal OB1 domain (RPA70N, residues 1 to 120), Atto488-labeled (domain or fragment)
chain: MVGQLSEGAIAAIMQKGDTNIKPILQVINIRPITTGNSPPRYRLLMSDGLNTLSSFMLATQLNPLVEEEQLSSNCVCQIHRFIVNTLKDGRRVVILMELEVLKSAEAVGVKIGNPVPYNE
modifications: Atto488 label

Assays:
Experiment in all cases: MST
[1] = target: GRB2, wild type, bacterially expressed and purified (UniProt P62993 1-217)
[2] = target: B1
[3] = target: Atto488-labeled GRB2-SH2 domain (UniProt P62993 60-152, Atto488 label)
Atto488-labeled GRB2-SH2 domain, sequence (P62993 60-152): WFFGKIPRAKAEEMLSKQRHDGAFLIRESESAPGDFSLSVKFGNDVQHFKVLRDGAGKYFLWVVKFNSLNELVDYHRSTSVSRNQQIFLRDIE

GRB2, wild type, bacterially expressed and purified, sequence (P62993 whole entry): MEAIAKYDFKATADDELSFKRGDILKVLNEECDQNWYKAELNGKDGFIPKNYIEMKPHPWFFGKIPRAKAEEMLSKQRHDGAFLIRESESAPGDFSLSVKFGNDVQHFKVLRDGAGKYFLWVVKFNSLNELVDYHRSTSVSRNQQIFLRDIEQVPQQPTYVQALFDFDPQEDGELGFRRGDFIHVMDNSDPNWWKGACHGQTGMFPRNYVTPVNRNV

## B1
[1]
  binding result: binds

## KYDFKATADDELSFKRG [GRB2 OB1 peptide]
[2]
  binding result: binds

## FLPVPE[pY]INQSVPKR [Phosphorylated EGFR synthetic peptide]
[3]
  Kd: 7.2 ± 2 µM

## PWVNYQDGNLN [MRE11 peptide]
[3]
  Kd: 33 ± 15 µM

## PWVN[pY]QDGNLN [Tyrosine-phosphorylated MRE11 peptide]
[1]
  binding result: binds

## PSGGKKATQA[pS]QE[pY] [Dual-phosphorylated H2AX (pH2AX) peptide]
[1]
  binding result: binds
